# Values quoted from earlier work as cited in article PMC3433420.
# Read-outs that look alike come from different tables or passages of the source.
# Legend:
# Conditions in all cases: cited from earlier work
# [1] = molecular target: VAV1 (Homo sapiens) (UniProt P15498)
# [2] = molecular target: ABL2 (Homo sapiens) (UniProt P42684)
# [3] = molecular target: SH2D3A (Homo sapiens) (UniProt Q9BRG2)
# [4] = molecular target: TENC1 (Homo sapiens) (UniProt Q63HR2)
# [5] = molecular target: SYK-NC (Homo sapiens) (UniProt P43405)
# [6] = molecular target: PIK3R3-N (Homo sapiens) (UniProt Q92569)
# [7] = molecular target: TEC (Homo sapiens) (UniProt P42680)
# TEC (Homo sapiens), sequence (P42680 242-350): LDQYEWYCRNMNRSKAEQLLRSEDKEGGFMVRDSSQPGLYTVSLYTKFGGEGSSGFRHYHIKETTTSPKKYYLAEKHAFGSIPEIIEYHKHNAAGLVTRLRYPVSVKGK
# [8] = molecular target: CRK (Homo sapiens) (UniProt P46108)
# CRK (Homo sapiens), sequence (P46108 8-123): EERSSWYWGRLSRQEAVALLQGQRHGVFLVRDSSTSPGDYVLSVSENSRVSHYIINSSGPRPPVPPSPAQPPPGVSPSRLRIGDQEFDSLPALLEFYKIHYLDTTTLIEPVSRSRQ
# [9] = molecular target: SHC2-PTB (Homo sapiens) (UniProt P98077)
# SHC2-PTB (Homo sapiens), sequence (P98077 482-582): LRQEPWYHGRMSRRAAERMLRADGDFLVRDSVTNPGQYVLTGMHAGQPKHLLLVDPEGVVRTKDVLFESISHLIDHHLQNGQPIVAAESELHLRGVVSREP
# [10] = molecular target: PIK3R1-N (Homo sapiens) (UniProt P27986)
# PIK3R1-N (Homo sapiens), sequence (P27986 328-723): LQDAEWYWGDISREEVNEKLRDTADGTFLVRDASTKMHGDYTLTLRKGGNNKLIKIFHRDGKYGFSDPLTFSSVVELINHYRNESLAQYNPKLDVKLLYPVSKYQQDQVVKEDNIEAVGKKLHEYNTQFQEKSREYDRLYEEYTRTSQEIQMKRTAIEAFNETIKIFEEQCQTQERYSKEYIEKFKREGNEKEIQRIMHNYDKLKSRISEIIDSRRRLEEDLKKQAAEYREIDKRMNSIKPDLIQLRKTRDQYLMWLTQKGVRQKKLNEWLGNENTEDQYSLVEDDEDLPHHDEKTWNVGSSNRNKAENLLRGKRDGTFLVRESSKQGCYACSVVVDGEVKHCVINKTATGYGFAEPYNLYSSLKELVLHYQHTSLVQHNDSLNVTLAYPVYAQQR
# [11] = molecular target: VAV3 (Homo sapiens) (UniProt Q9UKW4)
# VAV3 (Homo sapiens), sequence (Q9UKW4 667-771): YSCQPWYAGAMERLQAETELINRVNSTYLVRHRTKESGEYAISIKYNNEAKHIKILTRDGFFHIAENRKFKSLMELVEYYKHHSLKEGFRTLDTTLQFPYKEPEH
# [12] = molecular target: VAV1 (Homo sapiens) (UniProt P15498); remark: listed apart in the source
# [13] = molecular target: PIK3R1-NC (Homo sapiens) (UniProt P27986)
# PIK3R1-NC (Homo sapiens), sequence (P27986 328-723): as the sequence (P27986 328-723) above
# [14] = molecular target: PLCG1-NC (Homo sapiens) (UniProt P19174)
# PLCG1-NC (Homo sapiens), sequence (P19174 545-761): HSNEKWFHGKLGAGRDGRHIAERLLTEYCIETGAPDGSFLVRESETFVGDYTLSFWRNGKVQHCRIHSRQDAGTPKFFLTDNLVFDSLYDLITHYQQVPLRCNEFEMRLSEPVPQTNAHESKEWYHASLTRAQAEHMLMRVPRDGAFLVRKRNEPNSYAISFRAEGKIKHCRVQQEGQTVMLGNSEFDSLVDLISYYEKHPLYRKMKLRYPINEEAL
# [15] = molecular target: TNS4 (Homo sapiens) (UniProt Q8IZW8)
# TNS4 (Homo sapiens), sequence (Q8IZW8 444-561): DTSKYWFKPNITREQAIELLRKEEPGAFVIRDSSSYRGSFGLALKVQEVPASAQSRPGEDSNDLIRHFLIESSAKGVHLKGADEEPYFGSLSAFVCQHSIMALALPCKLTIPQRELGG
# [16] = molecular target: DAPP1 (Homo sapiens) (UniProt Q9UN19)
# DAPP1 (Homo sapiens), sequence (Q9UN19 30-134): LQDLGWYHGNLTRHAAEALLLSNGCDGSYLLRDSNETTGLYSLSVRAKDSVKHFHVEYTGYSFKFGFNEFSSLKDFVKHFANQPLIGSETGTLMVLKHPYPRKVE
# [17] = molecular target: PIK3R3-N (Homo sapiens) (UniProt Q92569); remark: listed apart in the source
# [18] = molecular target: SRC (Homo sapiens) (UniProt P12931)
# [19] = molecular target: SH2B3 (Homo sapiens) (UniProt Q9UQQ2)
# SH2B3 (Homo sapiens), sequence (Q9UQQ2 359-467): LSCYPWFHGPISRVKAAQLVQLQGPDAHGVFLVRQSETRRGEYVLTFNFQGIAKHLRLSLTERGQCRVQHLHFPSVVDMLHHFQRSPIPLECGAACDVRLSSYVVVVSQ
# [20] = molecular target: PIK3R3-NC (Homo sapiens) (UniProt Q92569)
# [21] = molecular target: YES1 (Homo sapiens) (UniProt P07947)
# YES1 (Homo sapiens), sequence (P07947 153-260): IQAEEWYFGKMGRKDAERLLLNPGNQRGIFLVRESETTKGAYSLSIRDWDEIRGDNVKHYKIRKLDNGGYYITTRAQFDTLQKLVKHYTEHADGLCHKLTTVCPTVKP
# [22] = molecular target: PIK3R2-NC (Homo sapiens) (UniProt O00459)
# PIK3R2-NC (Homo sapiens), sequence (O00459 325-721): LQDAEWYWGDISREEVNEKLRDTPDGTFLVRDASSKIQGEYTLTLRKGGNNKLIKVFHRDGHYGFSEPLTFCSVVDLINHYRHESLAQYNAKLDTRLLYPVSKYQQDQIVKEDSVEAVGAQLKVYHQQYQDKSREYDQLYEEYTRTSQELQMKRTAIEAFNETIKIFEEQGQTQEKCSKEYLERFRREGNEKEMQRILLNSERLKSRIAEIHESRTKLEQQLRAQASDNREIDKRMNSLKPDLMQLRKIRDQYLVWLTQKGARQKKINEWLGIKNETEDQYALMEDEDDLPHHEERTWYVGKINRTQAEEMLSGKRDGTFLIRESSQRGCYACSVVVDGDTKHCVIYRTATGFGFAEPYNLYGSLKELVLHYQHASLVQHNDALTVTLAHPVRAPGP
# [23] = molecular target: SH2B3 (Homo sapiens) (UniProt Q9UQQ2); remark: listed apart in the source
# [24] = molecular target: YES1 (Homo sapiens) (UniProt P07947); remark: listed apart in the source
# [25] = molecular target: DAPP1 (Homo sapiens) (UniProt Q9UN19); remark: listed apart in the source
# [26] = molecular target: PLCG2-N (Homo sapiens) (UniProt P16885)
# PLCG2-N (Homo sapiens), sequence (P16885 527-740): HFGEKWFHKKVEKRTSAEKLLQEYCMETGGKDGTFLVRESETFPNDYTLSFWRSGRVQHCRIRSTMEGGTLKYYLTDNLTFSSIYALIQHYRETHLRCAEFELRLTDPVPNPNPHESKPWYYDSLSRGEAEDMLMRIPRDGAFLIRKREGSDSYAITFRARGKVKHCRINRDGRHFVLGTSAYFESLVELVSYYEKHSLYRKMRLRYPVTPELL
# [27] = molecular target: TEC (Homo sapiens) (UniProt P42680); remark: listed apart in the source
# [28] = molecular target: SHC2-PTB (Homo sapiens) (UniProt P98077); remark: listed apart in the source
# [29] = molecular target: SRC (Homo sapiens) (UniProt P12931); remark: listed apart in the source
# [30] = molecular target: PTPN11-N (Homo sapiens) (UniProt Q06124)
# [31] = molecular target: ITK (Homo sapiens) (UniProt Q08881)
# ITK (Homo sapiens), sequence (Q08881 234-343): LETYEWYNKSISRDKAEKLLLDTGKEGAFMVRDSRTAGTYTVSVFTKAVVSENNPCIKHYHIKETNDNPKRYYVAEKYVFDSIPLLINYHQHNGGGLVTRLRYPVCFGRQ
# VAV1 (Homo sapiens), sequence (P15498 666-770): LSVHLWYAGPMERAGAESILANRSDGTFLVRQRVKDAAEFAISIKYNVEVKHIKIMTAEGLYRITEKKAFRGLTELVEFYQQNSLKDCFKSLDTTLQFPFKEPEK
# TENC1 (Homo sapiens), sequence (Q63HR2 1135-1252): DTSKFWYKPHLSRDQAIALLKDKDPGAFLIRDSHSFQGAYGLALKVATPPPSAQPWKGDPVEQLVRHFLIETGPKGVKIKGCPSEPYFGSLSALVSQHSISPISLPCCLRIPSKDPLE
# SH2D3A (Homo sapiens), sequence (Q9BRG2 10-119): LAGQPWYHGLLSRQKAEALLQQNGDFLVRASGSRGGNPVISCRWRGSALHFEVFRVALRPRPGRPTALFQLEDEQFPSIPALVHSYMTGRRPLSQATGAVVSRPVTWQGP
# ABL2 (Homo sapiens), sequence (P42684 168-268): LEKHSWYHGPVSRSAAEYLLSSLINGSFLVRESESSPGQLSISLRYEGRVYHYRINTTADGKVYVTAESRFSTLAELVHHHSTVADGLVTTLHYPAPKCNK
substance,measurement,setting,value
…pYLVPQQGF,apparent Kd (screen),[1],2000 nM
same,apparent Kd (screen),[2],2000 nM
same,apparent Kd (screen),[3],2000 nM
same,apparent Kd (screen),[4],2000 nM
same,apparent Kd (screen),[5],372 nM
same,apparent Kd (screen),[6],1930 nM
same,apparent Kd (screen),[7],2000 nM
…pYLIPQQGFd,apparent Kd (screen),[8],470 nM
same,apparent Kd (screen),[9],664 nM
same,apparent Kd (screen),[10],899 nM
same,apparent Kd (screen),[11],2000 nM
same,apparent Kd (screen),[12],1050 nM
same,apparent Kd (screen),[13],295 nM
same,apparent Kd (screen),[14],794 nM
…pYEEMRAFQ,apparent Kd (screen),[15],1950 nM
same,apparent Kd (screen),[16],999 nM
same,apparent Kd (screen),[17],58 nM
same,apparent Kd (screen),[18],999 nM
same,apparent Kd (screen),[19],1520 nM
same,apparent Kd (screen),[20],10 nM
same,apparent Kd (screen),[21],2000 nM
…pYWDQDPPE,apparent Kd (screen),[22],2000 nM
same,apparent Kd (screen),[23],2000 nM
same,apparent Kd (screen),[24],219 nM
same,apparent Kd (screen),[25],2000 nM
same,apparent Kd (screen),[26],601 nM
same,apparent Kd (screen),[27],1600 nM
same,apparent Kd (screen),[28],457 nM
same,apparent Kd (screen),[29],196 nM
same,apparent Kd (screen),[30],2000 nM
same,apparent Kd (screen),[31],2000 nM
